In patent publication US20050118229A1, “Implantable drug delivery device for sustained release of therapeutic agent” (iMEDD, Inc., priority 2003, published 2005):

Legend:
[1] = Hydration of lysozyme particles through planar microporous membrane (dual sub-chamber device of FIG. 1); type: physicochemical
Text: The data presented in FIG. 3 is illustrative of zero-order hydration of the surrogate molecule lysozyme using the planar version of the microporous membrane shown in FIG. 1. In this experiment, three identical acrylic chambers were used, each chamber including two subchambers separated by a planar microporous membrane. The microporous membrane was a Whatman 1PS Phase Separator having a diameter of […] (area=113 mm^2).
The lower portion of the chamber (i.e., the lower sub-chamber) was filled with 2.7 milliliters of the water-immiscible solvent, perfluorodecalin. Suspended in this solvent were 20 mg of solid lysozyme particles having an average particle size of 90 micrometers. The range of particle sizes was 75 to 105 micrometers. […] The upper portion of the chamber (i.e., the upper sub-chamber) contained 0.3 milliliters of phosphate buffered saline solution. A stirring bar was placed in the lower sub-chamber of each device to agitate the solvent at ambient temperature during the fifty-two day test period. After thirty-seven days, stirring was stopped to determine whether or not agitation had any effect on the hydration rate. The buffer solution in the upper sub-chamber of each device was removed each day and replaced with a fresh supply of solution. The lysozyme content of the upper sub-chamber samples was analyzed periodically to determine the quantity of lysozyme material that had dissolved in a one-day time period. The daily mass of lysozyme that was present in the upper sub-chamber was added to the sum of the previous days, thus the data in FIG. 3 represents the total mass of hydrated lysozyme.
The effect of longer release periods is substantially equivalent to determining the release rate with decreasing amounts of lysozyme present in the device enclosure. To determine release variations over longer periods of time, additional planar-membrane, dual-chamber experiments were conducted using different initial amounts of lysozyme loaded, i.e., suspended, in the perfluorodecalin used to fill the lower sub-chamber. […] These average hydration rates are plotted in FIG. 5 as a function of the amount of mass loaded (100%=20 mg).

[2] = Hydration of lysozyme particles from cylindrical capsule-like microporous membrane packet (FIG. 2); type: physicochemical
Experimental: FIG. 6 provides hydration results for a device utilizing the three-dimensional capsule-like embodiment of the microporous membrane (see FIG. 2). For this experiment, a section of Whatman 1PS Phase Separator membrane was formed into a cylinder and sealed lengthwise and at both ends. The resulting cylinder was 10 mm in length and 4 mm in diameter (125 mm^2 membrane area). The cylinder was filled with approximately 1.4 mg of solid lysozyme having an average particle size of 90 micrometers combined with approximately 125 μl of the water-immiscible solvent perfluorodecalin,
The particle-filled cylinder described above was placed in a well containing 1.5 milliliters of phosphate buffered saline. A series of 70 μl samples were removed from the well at various time intervals. These samples were analyzed, and the results in FIG. 6 are the summation of mass hydrated as a function of time. Approximately 2.6 μg of lysozyme per day (i.e., 0.021 μg/mm^2) was hydrated after a nine-day delay. This observed rate is a factor of four less than the hydration rate observed in the previously discussed planar membrane experiments; however, because the entire membrane area was not active for the cylinder-shaped membrane, the release per unit area data is in reasonable agreement bwtween the two experiments. Thus, the data shown in FIGS. 4-6 provide a clear indication that the devices shown in FIGS. 1 and 2 are capable of providing the long-term zero-order release desired for an implantable drug-delivery device.

Substance: lysozyme
- hydration rate relative to its original value ([1]; 2 mg loaded (10% of 20 mg)): 83%
- hydration rate ([1]; 2 mg suspended lysozyme, planar membrane): 7.7 micrograms/day
- hydration rate ([1]; 5 mg suspended lysozyme, planar membrane): 8.9 micrograms/day
- lysozyme mass hydrated ([1]; 20 mg loaded, over the fifty-two day testing period): 2%
- initial delay before hydration ([1]; 20 mg lysozyme loaded, planar membrane): eight to fourteen
- average hydration rate per membrane area ([1]; 20 mg lysozyme loaded, planar membrane area 113 mm^2): 0.082 ug/day/mm^2
- average hydration rate ([1]; 20 mg solid lysozyme particles loaded in perfluorodecalin, planar Whatman 1PS membrane, PBS, ambient temperature, 52 day test): 9.3 micrograms per day
- decrease of hydration rate ([1]; during the time the mass of lysozyme decreases by 80%): 4%
- lysozyme hydrated per day ([2]; approx. 1.4 mg lysozyme in approx. 125 μl perfluorodecalin, cylinder 125 mm^2 Whatman 1PS, 1.5 ml PBS): Approximately 2.6 μg per day
- factor by which rate is less than the planar membrane hydration rate ([2]; cylinder versus planar membrane experiments): four
- delay before hydration ([2]; cylinder-shaped membrane): nine
- lysozyme hydrated per membrane area ([2]; cylinder-shaped membrane, 125 mm^2 membrane area): ~0.021 μg/mm^2
